Biological target: NT-proBNP (UniProt P16860)
Experiment: AuNP aggregation (LSPR, A750/A521), Hill fit; diluted urine; Hill n = 0.0751; NT-proBNP in 5 mM PBS pH 7.4; aptamer in 10 mM Tris-HCl, 0.2 mM EDTA (0.25 uM in assay); 15 min incubation; then citrate AuNPs and 40 uL 0.2 M NaCl; 25 C stated for CD sample only
Details: protein: commercial; antiparallel G4 proposed from CD

Chain of NT-proBNP (P16860 27-134): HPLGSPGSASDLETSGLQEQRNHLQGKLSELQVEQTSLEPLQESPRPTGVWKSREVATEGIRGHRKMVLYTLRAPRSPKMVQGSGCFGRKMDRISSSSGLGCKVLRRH

B1: NT-proBNP aptamer (structured_DNA)
DNA: GGCAGGAAGACAAACAGGTCGTAGTGAAACTGTCCACCGTAGACCGGTTATCTGTTGGTCTGTGGTGCTGT
Kd: 2.71 nM
